The values below come from US20110200525A1 (published 2011).

Where “and” joins values, the source holds several entries; their conditions need not be identical. Equal values may be shown once.

The target in test [1] is T1, EGFRvIII ECD (UniProt P00533 25-645).
T1 construct: extracellular domain; Deletion mutant; also called vIII mutant EGFR ECD
In words: SPR, Biacore 3000, ECD coupled to CM5 chip. As to the method:
(§1) The ka, kd, and KD values were determined for the binding of two VHH domains to the ECDs of EGFR and EGFRvIII by surface plasmon resonance (SPR). The ECDs were coupled to BIACORE® CM5 chips and VHH domains were sequentially flowed over each protein in the BIACORE® 3000 (GE Healthcare).

Test [2] addresses T2, EGFR ECD (wild type) (UniProt P00533 25-645, limits assumed).
T2 construct: extracellular domain; the cell lines carry human EGFR; also called wild type EGFR ECD; EGFR extracellular domain
In words: SPR, Biacore 3000, ECD coupled to CM5 chip. As to the method:
as §1
Background: SPR reads the build-up and loss of mass on a sensor chip optically.

Test [3] addresses T3, human EGFR wild type (human, UniProt P00533 25-1210).
T3 construct: whole, on cells; also called EGFR on NR6W cells; EGFR in NR6W lysate
In words: pull-down from NR6W lysate by His-tagged VHH on a nickel-chelate plate, Western blot with anti-EGFR mAb H11. Background: A western blot detects proteins with antibodies after separation by electrophoresis.
Description: The VHH domains were allowed to bind to the plate wells for 16 hr at 4° C., and then the wells were washed 3 times with Tris-buffered saline containing 0.1% (v/v) TWEEN®-20 (TBST). NR6W lysate (450 μg) made with M-PER reagent (Pierce) plus EDTA-free protease inhibitors (Roche Applied Science) was added to each well and allowed to incubate for 16 hr at 4° C. The lysate was removed, and the wells were washed 15 times with TBST. Protein remaining on the well surface was eluted in SDS-PAGE sample buffer containing 1% (v/v) β-mercaptoethanol and 100 mM imidazole, preheated to 95° C. […] The blot was developed with SuperSignal West™ substrate (Pierce) and exposed to film.
NR6W lysate was added to each well and allowed to incubate for 16 hr at 4° C. The lysate was removed, the wells were washed and remaining protein eluted. Samples were subjected to SDS-PAGE and proteins were transferred to a PVDF membrane that was then probed for EGFR.

The target in test [4] is T3, human EGFR wild type. In words: saturation binding of 125I-labelled VHH122 on an EGFR-expressing cell, specific binding in CPM.
Test [5] addresses T2, EGFR ECD (wild type). In words: SPR, Biacore 3000, EGFR ECD on CM5 chip, VHH at 0.6 µM. As to the method:
as §1

For test [6], the target named is T1, EGFRvIII ECD. In words: SPR, Biacore 3000, EGFRvIII ECD on CM5 chip, VHH at 1.0 µM. The protocol:
as §1

Test [7] concerns the target T1, EGFRvIII ECD. In words: SPR, Biacore 3000, EGFRvIII ECD on CM5 chip, VHH at 0.6 µM. As to the method: as §1
Test [8] concerns the target T2, EGFR ECD (wild type). In words: SPR, Biacore 3000, EGFR ECD on CM5 chip, VHH at 1.0 µM. The protocol:
as §1

The target of test [9] is T1, EGFRvIII ECD. In words: SPR, Biacore 3000, ECD on CM5 chip; summary value. The protocol:
as §1

In test [10] the target is T2, EGFR ECD (wild type). In words: SPR, Biacore 3000, ECD on CM5 chip; summary value. As to the method:
as §1

Test [11] has as its target T3, human EGFR wild type. In words: phage format; assay not given.
The target in the next test is T4, human EGFRvIII (human, UniProt P00533 25-1210).
T4 construct: whole, on cells; Deletion mutant; also called EGFRvIII on NR6M cells; VIII mutant EGFR
In words: phage format; assay not given.

By Kd is commonly meant the equilibrium constant for the complex coming apart. High values mean lower affinity, low ones higher affinity. By koff is commonly meant the rate constant with which the complex falls apart. The kon is the rate constant with which the complex forms. A low value points to slower complex formation.

B1: RP2 (VHH)
VHH: EVQLQESGGGLVQAGGSLRLSCAASGSTFSNEPFGWYRGAPGKLRELVGTISAGGNTNYVDAVKGRFMISRDNGRRMVYLQMNNLRPDDTAVYYCWNRGYWGQGTQVTVSS
notes: Random library clone used as negative control, as free VHH; also called random VHH domain RP2; control VHH RP2; not shown: C-terminal 6-His and myc tags from pHEN1-H6
For B1, the figures for the binding result with EGFRvIII ECD [1], in the test with EGFR ECD (wild type) [2] and with human EGFR wild type [3] were “no binding”, “no binding” and “no binding (tested: 20 ug VHH per well)”, respectively.

B2: [125I]VHH122 (VHH)
VHH: EVQLQESGGGLVQAGDSLRLSCLVSGRSFNSYTMGWFRQAPGKEREFVAAILWSGPTTYYADSVKGRFTISRDNAKNTVYLQMNSLKPEDTAVYYCAAALGVLVLAPGNVYSYWGQGTQVTVSS
modifications: 125I label; labelled residues not stated
notes: not shown: C-terminal 6-His and myc tags from pHEN1-H6
B2 came in with a Kd in the test with human EGFR wild type [4] of 46 nM.

B3: VHH122 (VHH)
VHH: EVQLQESGGGLVQAGDSLRLSCLVSGRSFNSYTMGWFRQAPGKEREFVAAILWSGPTTYYADSVKGRFTISRDNAKNTVYLQMNSLKPEDTAVYYCAAALGVLVLAPGNVYSYWGQGTQVTVSS
notes: polyhistidine and myc tagged; also called VH122; not shown: C-terminal 6-His and myc tags from pHEN1-H6
B3: the Ka with EGFR ECD (wild type) [5] is 2.58e+07 M⁻¹; with EGFRvIII ECD [6] it was 1.82e+07 M⁻¹; in the test with EGFRvIII ECD [7] it was 3.01e+07 M⁻¹; in the test with EGFR ECD (wild type) [8], 4.95e+07 M⁻¹ and 1.73e+07 M⁻¹. In addition, the Kd in the test with EGFR ECD (wild type) [5] is 38.7 nM; in the test with EGFRvIII ECD [6], 55 nM; with EGFRvIII ECD [7], 33.2 nM; with EGFR ECD (wild type) [8], 20.2 nM and 57.8 nM; in the test with EGFRvIII ECD [9], roughly 40 nM; in the test with EGFR ECD (wild type) [10], roughly 40 nM. Moreover, the off-rate constant (koff) is 0.00318 s⁻¹ in the test with EGFR ECD (wild type) [5]; 0.00308 s⁻¹ in the test with EGFRvIII ECD [6]; 0.00304 s⁻¹ in the test with EGFRvIII ECD [7]; 0.00207 s⁻¹ and 0.00333 s⁻¹ in the test with EGFR ECD (wild type) [8]. Moreover, the kon in the test with EGFR ECD (wild type) [5] was 82300 M⁻¹ s⁻¹; with EGFRvIII ECD [6] it was 56100 M⁻¹ s⁻¹; with EGFRvIII ECD [7], 91300 M⁻¹ s⁻¹; with EGFR ECD (wild type) [8], 57600 M⁻¹ s⁻¹ and 102000 M⁻¹ s⁻¹.

B4: VHH205 (VHH)
VHH: QVKLQESGGGLVQSGGSLRLSCIASGSTVSGNTMGWYRQAPGKQRELVAVISSVGVSNVAQSVKGRFAISRDNAKNTVYLQMSSLKPEDTAVYYCNALGTGRANWGQGTQVTVSS
notes: Free VHH used in SPR; not shown: C-terminal 6-His and myc tags from pHEN1-H6
In the test with EGFR ECD (wild type) [8], B4 yielded a Ka of 1.34e+07 M⁻¹, a Kd of 74.7 nM, a koff of 0.0115 s⁻¹ and an association rate constant (kon) of 154000 M⁻¹ s⁻¹.

B5: VHH03 (VHH)
VHH: EVKLQQSGGGLVQPGGSLTLSCVTSGFTFSTYGMDWVRQAPGKGFEWVASISFGGGITNYGDFVKGRFTISRDNAKNTLYLHMNGLKPDDTAVYYCQMGSKRGQGTQVTVSS
Consider B5, for which the binding result is reported as “binds” with human EGFR wild type [11] and “no binding” in the test with human EGFRvIII.
